Assay results: the RNAGym collection of RNA variant scans (doi:10.1073/pnas.2313332121)

B1: TPR t1 (parent)
chain: GACCAAUCUGCCCUCAGAGCUCGAGAACAUCUUCGGAUGCAGAGGAGGCAGGCUUCGGUGGCGCGAUAGCGCCAACGUCCUCAACCUCCAAUGCAUCCCACCACAUGAUGAUGCCUGAAGAGCCUUGGUUUUUUG

Variants of: B1
Test: polymerase ribozyme fitness, log enrichment relative to wild type (log ratio); higher = more active; in vitro selection for triplet polymerase activity
How it was run: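 Mutant libraries of both subunits of a heterodimeric triplet polymerase ribozyme were PCR-built, transcribed, and selected once in triplicate, with frozen incubation at −7 °C and capture of gel-excised extended constructs on streptavidin beads before RT-PCR. Illumina sequencing of input and output libraries was filtered to genotypes with ≥10 input reads and ≥1 read per output. Fitness is the logarithm of genotype enrichment over wild-type enrichment, using inverse-variance-weighted replicate averages. The logarithm is base 2.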

Row | Variant | polymerase ribozyme fitness (log ratio)
1 | GACCAAUCUGCCCUCAGAGCUCGAGAACAUCUUCUGAUGCAGAGGAGGAAGGCUUCGGUGGCGUGAUAGCGCCAACGUCCUCAACCUCCAAUGCAUCCCACCACAUGAUGAUGCCUGAAGAGCCUUGGUUUUUUG [G35U C49A C64U] | -6.12
2 | GACCAAUCUGCCCUCAGAGCUCGAGAACAUCUUCUGAUGCAGAGGAGGCAGGCUUCGGUGGUGCGAUAGCGCCAACGUCCUCAACCUCCAAUGCAUCCCACCACAUGAUGAUGCCUGAAGAGCCUUGGUUUUUUG [G35U C62U] | -3.74
3 | GACCAAUCUGCCCUCAGAGCUCGAGAACAUCUUCUGAUGCAGAGGAGGCAGGCUUCGGUGGCGCGAUAGCGCCAACGUCCUUAACCUCCAAUGCAUCCCACCACAUGAUGAUGCCUGAAGAGCCUUGGUUUUUUG [G35U C82U] | -7.04
4 | GACCAAUCUGCCCUCAGAGCUCGAGAACAUCUUCCGAUGCAGAGGAGGCAGGCUUCGGUGACGCGAUAGCGCCAACGUCCUCAACCUCCAAUGCAUCCCACCACAUGAUGAUGCCUGAAGUGCCUAGGUUUUUUG [G35C G61A A121U U126A] | -3.79
5 | GACCAAUCUGCCCUCAGAGCUCGAGAACAUCUUCUGAUGCAGAGGAGGCAGGCUUCGGUGGCGCGAUAGCGCCAACGUCCUCAACCUCCAAUGCAUCCCACCACAUGAUGAUGCCUGAAGAGCCUUGGUUUUUUG [G35U] | -4.66
6 | GACCAAUCUGCCCUCAGAGCUCGAGAACAUCUUCCGAUGCAGAGGAGGCAGGCUUCGGUGCCGCGAUAGCGCCAACGUCCGCAACCUCCAAUGCAUCCCACCACAUGAUGAUGCCUCAAGAGCCUUGGUUUUUUG [G35C G61C U81G G117C] | -5.32
7 | GACCAAUCUGCCCUCAGAGCUCGAGAACAUCUUCUGAUGCAGAGGAGGCAGGCUUCGGUGGCGCGAUAGCGCCAACGUCCUCAACUUCCAAUGCAUCACACCACAUGAUGAUGCCUGAAGAGCCUUGGUUUUUUG [G35U C86U C98A] | -4.39
8 | GACCAAUCUGCCCUCAGAGCUCGAGAACAUCUUCUGAUGCAGAGGAGGCAGGCUUCGGUGGCGCGAUAGCGCCAACGUCCUCAACCUCCCAUGCAUCCCACCACAUGAUGAUGCCUGAAGAGCCUUGGUUUUUUG [G35U A90C] | -6.98
9 | GACCAAUCUGCCCUCAGAGCUCGAGAACAUCUUCCAAUGAAGAGGAGGCAGGCUUCGGUGGCGCGAUAGCGCCAACGUCCUCAACCUCCAAUGUAUCCCACCACAUGAUGAUGUCUGAAGAGCCUUGGUUUUUUG [G35C G36A C40A C94U C114U] | -6.41
10 | GACCAAUCUGCCCUCAGAGCUCGAGAACAUCUUCCGAUGCAGAGGAGGCAGUCUUCGGUGGCGCGAUCGCGCCAACGUCCUCAACCUCCAAAGCAUCGCACCACAUGAUCAUGCCUUAAGAGCCUUGGUUUUUUG [G35C G52U A68C U92A C98G G110C G117U] | -6.61
11 | GACCAAUCUGCCCUCAGAGCUCGAGAACAUCUUCCGAUGCAGAGGAGGCAGGCUUUGGUGGCGCGAUAGCGCCAACGUCCUCAACCUCCAAUGCAUCCCACCACAUGAUGAUGCCUGAAGAGCCUUGGUUUUUUG [G35C C56U] | -4.82
12 | GACCAAUCUGCCCUCAGAGCUCGAGAACAUCUUCCGAUGCAGAGGAGGCAGGCUUCGGUGGCGCGAUAGCGCCAACGUCCUCAACCUCCAAUGCAUCCCACCACACGAUGAUGCCUAAAGAGCCUUGGUUUUUUG [G35C U106C G117A] | -5.76
13 | GACCAAUCUGCCCUCAGAGCUCGAGAACAUCUUCUGAUGCAGAGGAGGCAGGCUUCGGUGGCGUGAUAGCGCCAACGCCCUCAACCUCCAAUGCAUCCCACCACAUGAUGAUGCCUGAAGAGCCUUGGUUUUUUG [G35U C64U U78C] | -5.42
14 | GACCAAUCUGCCCUCAGAGCUCGAGAACAUCUUCCGAUGCAGAGGAGGCAGGCUUCGGUGGCGCGAUAGCGCCAACGUCCUCAACCUCCAAUGCAUCCCACCACAUGAUGCUGCCUGAAGAGCCUUGGUUUUUUG [G35C A111C] | -4.47
15 | GACCAAUCUGCCCUCAGAGCUCGAGAACAUCUUCCGAUGCAGAGGCGGCAGGCUUCGGUGGCGCGAUAGCGCCAACGUCCUCAACCUCCAAUGCAUCCCACCACAUGAUGAUGCCUGUAGAGGCUUGGUUUUUUG [G35C A46C A118U C123G] | -4.04
16 | GACCAAUCUGCCCUCAGAGCUCGAGAACAUCUUCCGAUGCAGAGGAAGCAGGCUUUGGUGGCGCGAUAGCGCCAACGUCCUCAACCUCCAAUGCAUCCCACCACAUGAUGGUGCCUGAAGAGCCUUGGUUUUUUG [G35C G47A C56U A111G] | -5.32
17 | GACCAAUCUGCCCUCAGAGCUCGAGAACAUCUUCUGAUGCAGAGGAGGCAGGCUUCGGUGGCGUGAUAGCGCCAACGUCCUCAACCUCCAAUGCAUCCCACCACAUGAUGAUGCCUGAAGAGCCUUGGUUUUUUG [G35U C64U] | -5.09
18 | GACCAAUCUGCCCUCAGAGCUCGAGAACAUCUUCUGAUGCAGAGGAGGCAGGCUUCGGUGGCGCGAUAGCGCCAACGUUCUCAACCUCCAAUGCAUCCCACCACAUGAUGAUGUCUGAAGAGCCUUGGUUCUUGG [G35U C79U C114U U131C U134G] | -5.19
19 | GACCAAUCUGCCCUCAGAGCUCGAGAACAUCUUCCGAUGCAGAGGAGGCAGGCUUCGGUGCCGCGAUAGCGCCAACGUCCUCAACCUCCAAUGCAUCGCACCACAUGAUGAUGCCUGAAGAGCCUUGGUUUUUUG [G35C G61C C98G] | -5.36
20 | GACCAAUCUGCCCUCAGAGCUCGAGAACAUCUUCCGAUGCAGAGGAGGCAGGCUUCGGUGGCGCGAUAGCGCCAACGUCCUCAACCUCCAAUGCAUCCCACCACAUGAUGAUGCUUGUAGAGCCUUGGUUUUUUG [G35C C115U A118U] | -7.09
21 | GACCAAUCUGCCCUCAGAGCUCGAGAACAUCUUCUGAUGCAGAGGAGGCAGGCUUCGGUGGCGCGAUAGCGCCAACGUCCUCACCCUCCAAUGCAUCCCACCACAUGAUGAUGCCUGAAGAGCCUUGGUUUUUUG [G35U A84C] | -5.41

Row | Variant | polymerase ribozyme fitness (log ratio)
22 | GACCAAUCUGCCCUCAGAGCUCGAGAACAUCUUCCGAUGCAGAGGAGGCAGGCUUCGGUGGCGCGAUAGCGCCAAGGUCCUCAACCUCCAAUGCAUCCCACCACAUGAUGAUGCCUGAAGAGCCUUGGUUUUUUG [G35C C76G] | -4.89
23 | GACCAAUCUGCCCUCAGAGCUCGAGAACAUCUUCCGAUGCAGAGGAGGCAGGCUUCGGUGGCGCGAUAGCGCCAACGUCCUCAACCUCCAAUGCGUCCCACCACAUGAUGAUGCCUGAAGAGCCUUGGUUUUUUG [G35C A95G] | -4.43
24 | GACCAAUCUGCCCUCAGAGCUCGAGAACAUCUUCCGAUGCAGAGGAGGCAGGCUUCGGUGGCGCGAUAGCGCCAAUUUCCUCAACCUCCAAUGCAUCCCACCACAUGAUGAUGCCUGAAGAGUCUUGGUUUUUUG [G35C C76U G77U C123U] | -6.87
25 | GACCAAUCUGCCCUCAGAGCUCGAGAACAUCUUCUGAUGCAGAGGAGGCAGGCUUCGGUGGCGCGAUAGCGUCAACGUCCUCAACCUCCAAUGCAUCCCACCACAUGAUGAUGCCUGAAGAGCCUUGGUUUUUUG [G35U C72U] | -4.43
26 | GACCAAUCUGCCCUCAGAGCUCGAGAACAUCUUCUGAUGCAGAGGAGGCAGGCUUCGGUGGCGCGAUAGCGCCAACGUCAUCAACCUCCAAUGCAUCCCACCACAUGAUGAUGCCUGAAGAGCCUUGGUUUUUUG [G35U C80A] | -6.8
27 | GACCAAUCUGCCCUCAGAGCUCGAGAACAUCUUCCGAUGCAGAGGAGGCAGGUUUCGGUGGCGCGAUAGCGCCAACGUCCUCAACCUCCAAUGUAUCCCACCACAUGAUGAUGCCUGAAGCGCCUUGGUUUUUUG [G35C C53U C94U A121C] | -3.49
28 | GACCAAUCUGCCCUCAGAGCUCGAGAACAUCUUCUGAUGCAGAGGAGGCAGGCUUCGGUGGCGCGAUAGCGUCAACGUCCUCAACCUCCAAUGCAUCCCACCACAUGAUGAUGCCUCAAGAGCCUUGGUUUUUUG [G35U C72U G117C] | -7.07
29 | GACCAAUCUGCCCUCAGAGCUCGAGAACAUCUUCCGAUGCAGAGGAGGCAGGCUUCGGUGGCGCGAUAGCGCCAACGUCCUCAAACUCCAAUGCAUCCCACCACAUGAAGAUGGCUGAAGAGCUUUGGUUUUUUG [G35C C85A U109A C114G C124U] | -4.87
30 | GACCAAUCUGCCCUCAGAGCUCGAGAACAUCUUCCGAUUCAGAGGAGGCAGGCUUCGGUGGCGUGAUAGCGCCAACGUCCUCAACCUCCAAUGCAUCCCACCACAUGAUGAUGCCUGAAGAGCCUUGGUUUUUUG [G35C G39U C64U] | -7.51
31 | GACCAAUCUGCCCUCAGAGCUCGAGAACAUCUUCCGAUGCAGAGGAGGCAGGCUUCGGCGGCGCGAUAGCGCCAACGUCCUCAACCUCCAAUGCAUCCCACCACAUGAUGAUGCCUGAAGAGCAUUGGUUUUUUG [G35C U59C C124A] | -3.15
32 | GACCAAUCUGCCCUCAGAGCUCGAGAACAUCUUCCGAUGCAGAGGAGGCAGGCUUCGGUGACGCGAUAGCGCCAACGUCCUCAACCUCCAAUGCAUCCCACCACAGGAUGAAGCCUGAAGAGCCUUGGUUUUUUG [G35C G61A U106G U112A] | -3.75
33 | GACCAAUCUGCCCUCAGAGCUCGAGAACAUCUUCUGAUGCAGAGGAGGCAGGCUUUGGUGGCGCGAUAGCGCCAACGUCCUCAACCUCCAAUGCAUCCCACCACAUGAUGAUGCCUGAAGGGCCUUGGUUUUUUG [G35U C56U A121G] | -4.8
34 | GACCAAUCUGCCCUCAGAGCUCGAGAACAUCUUCCGAUGCAGAGGAGGCAGGCUUCGGUGGCGCGAUAGCGCCAACGUCCUCUACCUCCAAUGCAUCCCACCACAUGAUGAUGCCUGAAGGGCCUAGGUUUUUUG [G35C A83U A121G U126A] | -4.11
35 | GACCAAUCUGCCCUCAGAGCUCGAGAACAUCUUCUGAUGUAGAGGAGGCAGGCUUCGGUGGCGCGAUAGCGCCAACGUCCUCAACCUCCAAUGCAUCCCACCACAUGAUGAUGCCUGAAGAGCCUUGGUUUUUUG [G35U C40U] | -4.76
36 | GACCAAUCUGCCCUCAGAGCUCGAGAACAUCUUCCGAUGCAGAGGAGGCAGGCUUCGGUGCCGCGAUAGCGCCAACGUGCUCAACCUCCAAUGCAUCCCACCACAUGAUGAUGCCUGAAGAGCCUUGGUUUUUUG [G35C G61C C79G] | -6.99
37 | GACCAAUCUGCCCUCAGAGCUCGAGAACAUCUUCCGAUGCAGAGGAGGCAGGCUUCGGUGGCGCGAUAUCGCCAACGUGCUCAACCUCCAAUGCAUCCCACCACAUGAUGAUGCCUGAAGAGCCUUGGUAUUUUG [G35C G69U C79G U130A] | -4.92
38 | GACCAAUCUGCCCUCAGAGCUCGAGAACAUCUUCUGAUGCAGAGGAGGCAGGCUUCGGUGGCGCGAUAGCGCCAACGUCCUCAACCUCCAAUGCAUCCCACCACAUGAUGAUGCCUGAUGCGCAUUGGUUUUUUG [G35U A119U A121C C124A] | -4.47
39 | GACCAAUCUGCCCUCAGAGCUCGAGAACAUCUUCCGAUGCAGAGGAGGAAGGCUUCGGUGGCGCGAUAGCGCCAACGUCCUCAACCUCCAAUGCAUCCCACCACAUGAUGAGGCCUGAAGAGCCUUGGUUUUUUG [G35C C49A U112G] | -6.16
40 | GACCAAUCUGCCCUCAGAGCUCGAGAACAUCUUCCGAUGCAGAGGAGGCAGGCUUCGGUGGCGCGAUAGCGCCAACGUCCUCAACCUCCAAUGCAUCCCACCACAUGAUGAUGCCUGAAGAGGCUUGGUUUUUUG [G35C C123G] | -2.8
41 | GACCAAUCUGCCCUCAGAGCUCGAGAACAUCUUCCGAUGCAGAGGAGGCAGGCUUCGGUGGCGCGAUAGCGCCAACGUCCUCAACCUCCAAUGCAUCCCACCACACGAUGAUGCCUGAAGAGCCUUGGUUUUUUG [G35C U106C] | -4.83
42 | GACCAAUCUGCCCUCAGAGCUCGAGAACAUCUUCUGAUGCAGAGGAGGCAGGCUUCGGUGGCGCGAUAGCGCCGACGUCCUCAACCUCCAAUGCAUCCCACCACAUGAUGAUGCCUGAAGAGCCUUGGUUUUUUG [G35U A74G] | -5.03
